The target in test [1] is AIP TPR-domain E192R mutant. Description: Isothermal titration calorimetry, E192R AIP TPR-domain. In kind it is binding, human. The conditions noted are these: ITC, 20 mM Tris pH 7.5, 5 mM NaCl, 30°C, 350 µM AIP TPR injected into 30 µM HSP90β. The method, then: The TPR domain (residues 166–330) of human AIP was expressed as a PreScission cleavable His-tagged protein from pTWO-E (pET-17b derived; personal communication, A. W. Oliver, Sussex University). The TPR domain was purified by talon-affinity chromatography (Clontech, Oxford, UK), then concentrated and desalted on a HIPrep 26/10 desalting column equilibrated in 20 mM Tris pH 7.5 containing 1 mM EDTA. The sample was then cleaved overnight with GST-tagged PreScision protease. The cleaved protein was subsequently passed through a GST column equilibrated in 20 mM Tris pH 7.5, 1 mM EDTA and 150 mM NaCl and then through a second Talon column to remove any remaining uncleaved protein. The flow through was then concentrated and subjected to superdex 75HR gel-filtration chromatography equilibrated in 20 mM Tris pH 7.5, 1 mM EDTA, 1 mM DTT and 500 mM NaCl. […]
The heat of interaction was measured on an ITC200 microcalorimeter (Microcal), with a cell volume of 200 µL, under the same buffer conditions (20 mM Tris, pH 7.5, containing 5 mM NaCl) at 30°C. […] Heats of dilution were determined in a separate experiment by diluting protein or peptide into buffer, and the corrected data were fitted using a non-linear least-squares curve-fitting algorithm (Microcal Origin) with three floating variables: stoichiometry, binding constant and change in enthalpy of interaction. […]

The target in test [2] is T1, TPR domain (residues 166–330) of human AIP, WT (Homo sapiens, UniProt O00170).
T1 construct: The TPR domain (residues 166–330) of human AIP; His tag (PreScission cleavable) (cleaved yes); made in house
T1 sequence (O00170 166-330): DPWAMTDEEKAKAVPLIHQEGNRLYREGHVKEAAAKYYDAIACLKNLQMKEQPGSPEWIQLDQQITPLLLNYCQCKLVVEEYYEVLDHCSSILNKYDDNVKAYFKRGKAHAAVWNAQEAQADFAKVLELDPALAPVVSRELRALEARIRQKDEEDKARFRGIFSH
Description: Isothermal titration calorimetry, wild-type AIP TPR-domain. The conditions noted are these: ITC, 20 mM Tris pH 7.5, 5 mM NaCl, 30°C; for N (stoichiometry): first value where two are printed. The format is binding. The method, then:
The TPR domain (residues 166–330) of human AIP was expressed as a PreScission cleavable His-tagged protein from pTWO-E (pET-17b derived; personal communication, A. W. Oliver, Sussex University). The TPR domain was purified by talon-affinity chromatography (Clontech, Oxford, UK), then concentrated and desalted on a HIPrep 26/10 desalting column equilibrated in 20 mM Tris pH 7.5 containing 1 mM EDTA. The sample was then cleaved overnight with GST-tagged PreScision protease. The cleaved protein was subsequently passed through a GST column equilibrated in 20 mM Tris pH 7.5, 1 mM EDTA and 150 mM NaCl and then through a second Talon column to remove any remaining uncleaved protein. The flow through was then concentrated and subjected to superdex 75HR gel-filtration chromatography equilibrated in 20 mM Tris pH 7.5, 1 mM EDTA, 1 mM DTT and 500 mM NaCl. Pure TPR domain were concentrated and then desalted on a HIPrep 26/10 column equilibrated in 20 mM Tris pH 7.5 containing 1 mM EDTA. The protein was stored frozen at 2 mg ml^−1.
The heat of interaction was measured on an ITC200 microcalorimeter (Microcal), with a cell volume of 200 µL, under the same buffer conditions (20 mM Tris, pH 7.5, containing 5 mM NaCl) at 30°C. Twenty 1.9 µL aliquots of AIP TPR-domain at 350 µM were injected into 30 µM of human HSP90β. For peptide interactions twenty 1.9 µL aliquots of peptide ranging from 350 to 600 µM were injected into 30 µM of AIP TPR-domain. Heats of dilution were determined in a separate experiment by diluting protein or peptide into buffer, and the corrected data were fitted using a non-linear least-squares curve-fitting algorithm (Microcal Origin) with three floating variables: stoichiometry, binding constant and change in enthalpy of interaction. ATPase assays were previously described [44]–[46].
(In general: In ITC the heat of successive injections is recorded.)

The term Kd denotes the free concentration of one partner at which half of the binding sites on the other are occupied at equilibrium, for simple one-to-one binding. Turning to “FL-hHSP90β: full-length human HSP90β chaperone protein”, the results for the Kd in test [1] and in test [2] (peptide 350-600 µM injected into 30 µM AIP TPR-domain (for HSP90β: 350 µM AIP TPR into 30 µM HSP90β)) were 11.1 ± 1.3 µM and 13.3 ± 1.8 µM, respectively. Besides, the ΔH in test [2] is -4.554 kcal/mol. This substance had a ΔS in test [2] of 7.29 Cal/mol/deg. The “N (stoichiometry)” value in test [2] (for HSP90β given as AIP:HSP90) was 0.30; in test [2] (for HSP90β given as AIP:HSP90, listed as HSP90β) it was 0.3.

Values taken from paper PMC3534021, “Structure of the TPR Domain of AIP: Lack of Client Protein Interaction with the C-Terminal α-7 Helix of the TPR Domain of AIP Is Sufficient for Pituitary Adenoma Predisposition” (PLoS ONE, 2012).
